Test results published in patent US7507799.

Columns and labels:
[1] = tested on: T1, rat BDNF secreted by adenovirus-infected 293T or endothelial cells (proforms of 30 kDa and 28 kDa)
T1 sequence: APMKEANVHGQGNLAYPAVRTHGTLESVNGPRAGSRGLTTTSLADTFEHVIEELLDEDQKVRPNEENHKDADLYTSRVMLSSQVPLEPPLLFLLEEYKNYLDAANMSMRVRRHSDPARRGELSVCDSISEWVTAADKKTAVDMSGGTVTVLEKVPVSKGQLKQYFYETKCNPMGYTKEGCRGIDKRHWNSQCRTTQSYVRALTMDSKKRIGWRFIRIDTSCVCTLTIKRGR

[2] = tested on: His-tagged cleavage resistant pro-NGF (point mutant, K-R cleavage site at 120,121 mutated to A-A)

B1: MMP-7 (enzyme, UniProt P09237 95-267, looked up, species assumed)
Matrilysin: YSLFPNSPKWTSKVVTYRIVSYTRDLPHITVDRLVSKALNMWGKEIPLHFRKVVWGTADIMIGFARGAHGDSYPFDGPGNTLAHAFAPGTGLGGDAHFDEDERWTDGSSLGINFLYAATHELGHSLGMGHSSDPNAVMYPTYGNGDPQNFKLSQDDIKGIQKLYGKRSNSRKK
In the case of B1, the “proteolytic cleavage in endothelial media, Western blot” value [1] is reported as “In endothelial media, only plasmin and MMP-7 appeared to cleave the large proform”, the “proteolytic cleavage, Western blot” value [1] is reported as “Treatment of the media with recombinant MMP7 resulted in a reduction in the high molecular weight isoforms of 30 kDa or 28 kDa, and the generation of a novel form of approximately 17 kDa” and the “proteolytic cleavage, Western blot” value [2] is reported as “incubation of the pro-NGF with MMP-7 but not MMP-2, -3, or -9 resulted in cleavage of the 30 kD proform of NGF to the 17 kD form”.
